Publication PMC11436793

T1: SBP-UNK ZnF1-6 (30-357) (human, UniProt Q9C0B0 30-357)
T1 sequence: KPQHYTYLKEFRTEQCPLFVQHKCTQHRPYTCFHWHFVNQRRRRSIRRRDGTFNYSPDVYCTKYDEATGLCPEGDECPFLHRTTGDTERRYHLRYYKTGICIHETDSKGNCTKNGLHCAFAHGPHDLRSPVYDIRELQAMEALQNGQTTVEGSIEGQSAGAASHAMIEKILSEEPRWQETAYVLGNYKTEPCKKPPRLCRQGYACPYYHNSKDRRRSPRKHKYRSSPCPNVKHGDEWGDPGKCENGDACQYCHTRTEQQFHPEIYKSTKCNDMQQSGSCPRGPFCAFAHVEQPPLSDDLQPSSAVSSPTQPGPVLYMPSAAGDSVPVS


Molecular target: T1, SBP-UNK ZnF1-6 (30-357)
Assay: fluorescence polarization

| Binder | Kd |
| --- | --- |
| UACAUCGCAUUAGACAUUUU (ssRNA) [Human GTPB4 FP RNA] | 263 nM |
| UUCAUCGCAUUAGACAUUUU (ssRNA) [Chi58-67 gtpb4 FP RNA] | 305 nM |
